Results on two substances are retold here after PMC11797554, “Chemical genetics reveals cross-regulation of plant developmental signaling by the immune peptide-receptor pathway” (Science Advances, 2024).

By Kd is commonly meant a measure of binding affinity in units of concentration. A lower Kd goes with tighter binding.

Experiment [1] addresses SCRM KiDoK peptide (Arabidopsis). In words: BLI; biotinylated SCRM KiDoK peptide (500 nM) loaded on streptavidin probes; MPK6 as analyte at 150-4.68 nM; without kC9; Octet Red96, 25°C; 1x PBS, 2% DMSO, 0.02 Tween 20, 0.1% BSA; 1:1 model, Kd from kobs with steady-state analysis.
Experiment [2] shares this target. The experiment can be described thus: BLI; as a1 but analyte MPK6 preincubated with the small molecule kC9 (MPK6:kC9 1:1.5), 150-4.68 nM; biotinylated SCRM KiDoK peptide on streptavidin probes; 25°C; 1x PBS, 2% DMSO, 0.02 Tween 20, 0.1% BSA. Background: Biolayer interferometry detects binding as a change in optical thickness at a sensor tip.
Experiment [3] concerns the target MPK6ΔNt (29 to 305) (Arabidopsis) (UniProt Q39026). In words: ITC; SCRM KiDoK peptide to MPK6ΔNt (29 to 305), without kC9; 25°C, Malvern PEAQ-ITC; PBS pH 7.4 with 2% DMSO. Background: ITC needs no label: the signal is the heat of the interaction.
For experiment [4] the target is unchanged. The experiment can be described thus: ITC; SCRM KiDoK peptide to MPK6ΔNt (29 to 305) preincubated with the small molecule kC9; 25°C, Malvern PEAQ-ITC; PBS pH 7.4 with 2% DMSO.

For the substance “MPK6ΔNt (29 to 305) (from UniProt Q39026 29-305) (domain or fragment)”, the equilibrium dissociation constant (Kd) in experiment [1] was 40.1 nM; in experiment [2] it was 856 nM.

Regarding SCRM KiDoK peptide, the Kd in experiment [3] was found to be 43.4 nM; in experiment [4], 1400 nM.
